Results on six molecules are retold here after patent US8101379B2, “Preparation of low bleeding anticoagulant fusion protein and its use” (Institute of Radiation Medicine Academy of Military Medical …, priority 2006, dated 2012).

Data set [1] has as its system FH, hirudin linked at its amino-terminal with an oligopeptide recognizable and cleavable by blood coagulation factor Xa.
Data set [2] relates to T1, EPR-HV2 (EH), hirudin HV2 with EPR linked to its N-terminus.
T1 sequence: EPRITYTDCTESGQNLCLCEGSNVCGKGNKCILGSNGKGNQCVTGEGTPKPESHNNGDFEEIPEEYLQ

Data set [3] has as its system T2, GVYAR-HV2 (GH), hirudin HV2 with GVYAR linked to its N-terminus.
T2 sequence: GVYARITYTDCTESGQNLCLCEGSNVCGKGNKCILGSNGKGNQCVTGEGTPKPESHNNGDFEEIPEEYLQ

Data set [4] deals with TH, hirudin linked at its amino-terminal with an oligopeptide recognizable and cleavable by thrombin.
For data set [5], the system named is rat carotid artery thrombosis model. The data set is described as follows: Plasma TT levels in rat carotid artery thrombosis model. It counts as in vivo. The settings on record: NS group = 100%, X ± SD. An excerpt:
(§1) (1) Analyses of GH, EH, FH and TH antithrombotic and hemorrhagic side-effects in rat carotid artery thrombosis model, and the results were listed in table 2 and 3.

The test system of a further data set is tail-cut mouse. Put plainly: Bleeding time in hemorrhagic model of tail-cut mouse. The format is in vivo. As to conditions: for Bleeding time: X ± SD, 15 animals; for influence on hemorrhagic indexes compared with HV2 (in words): statement on table 3 and 4. How it is done: (2) The hemorrhagic side-effects of GH, EH, TH and FH in hemorrhagic model of tail-cut mouse were analyzed, and the results were listed in Table 4.

Data set [6] has as its system rat carotid artery thrombosis model. Put plainly: Time needed for thrombogenesis in rat carotid artery thrombosis model. The format is in vivo. The settings on record: for Time needed for thrombogenesis: rat carotid artery, X ± SD, 10 animals; for time needed for thrombogenesis (in words): rat carotid artery thrombosis model, statement on table 2.
Text: as §1

Another data set concerns the target FXa (Homo sapiens, UniProt P00742). Put plainly: Anticoagulation activity by fibrin-clot method before and after cleavage by FXa. It counts as biochemical. How it is done: (§2) EH, GH, FH and TH were cleaved respectively by thrombin, FXa and FXIa, then the activities of anticoagulation were assayed by fibrin-clot method.
Another data set concerns the target thrombin (Homo sapiens, UniProt P00734). Put plainly: Anticoagulation activity by fibrin-clot method before and after cleavage by thrombin. The format is biochemical. On the procedure: as §2
In a further data set the target is FXIa (Homo sapiens, UniProt P03951). Put plainly: Anticoagulation activity by fibrin-clot method before and after cleavage by FXIa. The format is biochemical. On the procedure:
as §2

Sequence of FXIa (P03951 388-625 limits assumed): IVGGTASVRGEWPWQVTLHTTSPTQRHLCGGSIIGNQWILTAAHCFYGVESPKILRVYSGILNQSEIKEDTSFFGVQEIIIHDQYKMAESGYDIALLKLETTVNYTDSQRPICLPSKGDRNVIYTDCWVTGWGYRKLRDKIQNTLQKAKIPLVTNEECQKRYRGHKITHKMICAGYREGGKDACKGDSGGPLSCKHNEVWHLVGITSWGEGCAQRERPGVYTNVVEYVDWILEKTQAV
Sequence of FXIa (P03951 19-387 partner limits assumed): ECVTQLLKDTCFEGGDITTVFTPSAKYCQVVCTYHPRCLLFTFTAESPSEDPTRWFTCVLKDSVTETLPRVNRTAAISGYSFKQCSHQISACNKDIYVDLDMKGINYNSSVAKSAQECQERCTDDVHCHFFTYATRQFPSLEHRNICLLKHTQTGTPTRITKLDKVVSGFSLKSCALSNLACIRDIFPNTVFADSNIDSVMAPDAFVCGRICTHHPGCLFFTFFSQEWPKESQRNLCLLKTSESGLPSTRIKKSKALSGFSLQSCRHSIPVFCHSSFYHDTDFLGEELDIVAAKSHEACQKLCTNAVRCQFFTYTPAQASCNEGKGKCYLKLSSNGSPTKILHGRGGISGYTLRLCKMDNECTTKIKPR
Sequence of FXa (P00742 235-488 limits assumed): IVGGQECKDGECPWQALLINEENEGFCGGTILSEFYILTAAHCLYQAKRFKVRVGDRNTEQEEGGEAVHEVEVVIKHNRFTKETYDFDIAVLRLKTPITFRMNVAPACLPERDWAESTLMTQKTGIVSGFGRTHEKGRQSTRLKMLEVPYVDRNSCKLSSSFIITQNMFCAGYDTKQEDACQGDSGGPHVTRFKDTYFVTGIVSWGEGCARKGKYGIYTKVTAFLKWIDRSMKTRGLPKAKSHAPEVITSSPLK
Sequence of FXa (P00742 41-179 partner limits assumed): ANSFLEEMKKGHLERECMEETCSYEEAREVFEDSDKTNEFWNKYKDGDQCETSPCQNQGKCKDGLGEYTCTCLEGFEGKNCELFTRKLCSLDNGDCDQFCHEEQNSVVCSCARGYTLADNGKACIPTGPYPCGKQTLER

In [1], blood coagulation factor XIa yielded an anticoagulation activity (fibrin-clot method) after 3 h of cleavage of 0, an anticoagulation activity (fibrin-clot method) after 6 h of cleavage of 0 and an anticoagulation activity (fibrin-clot method) at 0 h of cleavage of 0. In [2], this molecule displayed an anticoagulation activity (fibrin-clot method) after 3 h of cleavage of 256, an anticoagulation activity (fibrin-clot method) after 6 h of cleavage of 512 and an anticoagulation activity (fibrin-clot method) at 0 h of cleavage of 0. Moreover, in [3], the anticoagulation activity (fibrin-clot method) after 3 h of cleavage is 0; the anticoagulation activity (fibrin-clot method) after 6 h of cleavage was 0; the anticoagulation activity (fibrin-clot method) at 0 h of cleavage was 0; the “recognition and cleavage, read by release of anticoagulation activity” value (“recognition and cleavage, read” for short) is “GH can be recognizable and cleavable by two blood coagulation factors of FXIa and FXa respectively”. In data set [4], the anticoagulation activity (fibrin-clot method) after 3 h of cleavage was found to be 0, the anticoagulation activity (fibrin-clot method) after 6 h of cleavage came out at 64 and the anticoagulation activity (fibrin-clot method) at 0 h of cleavage came out at 0.

Consider blood coagulation factor Xa, for which the anticoagulation activity (fibrin-clot method) after 3 h of cleavage in data set [1] worked out at 64; in [2] it was 64; in [3] it was 64; in data set [4], 32. Further, the anticoagulation activity (fibrin-clot method) after 6 h of cleavage in [1] came out at 128; in data set [2] it was 128; in data set [3] it was 128; in data set [4], 64. In addition, the anticoagulation activity (fibrin-clot method) at 0 h of cleavage in data set [1], in data set [2], in [3] and in [4] was 0 each time. Moreover, the “recognition and cleavage, read” value in [1] is “while FH only by FXa”; in [2] it was “EH can be recognizable and cleavable by two blood coagulation factors of thrombin and FXa respectively”; in [3], “GH can be recognizable and cleavable by two blood coagulation factors of FXIa and FXa respectively”.

Regarding hirudin [HV2, reference compound], the “% of TT changes” value in data set [5] (2 mg/kg) is on record as 1005.62 ± 361.28 %. In the data set on tail-cut mouse (tail-cut mouse, 1.5 mg/kg), this molecule returned a Bleeding time of 1532.5 ± 420.74 s. Also, the “Time needed for thrombogenesis” value in data set [6] (2 mg/kg) is 1117.00 ± 243.95 s.

Take thrombin: the anticoagulation activity (fibrin-clot method) after 3 h of cleavage in [1] turned out to be 2; in data set [2] it was 0; in data set [3], 2; in data set [4] it was 0. Further, the anticoagulation activity (fibrin-clot method) after 6 h of cleavage in data set [1] amounted to 8; in data set [2] it was 0; in data set [3], 8; in data set [4] it was 0. Also, the anticoagulation activity (fibrin-clot method) at 0 h of cleavage in [1], in data set [2], in [3] and in data set [4] was 0 throughout. Further, the “recognition and cleavage, read” value is “EH can be recognizable and cleavable by two blood coagulation factors of thrombin and FXa respectively” in [2]; “TH only by thrombin” in data set [4].

B1: GH: hirudin (HV2) linked at its amino-terminal with the oligopeptide GVYAR recognizable and cleavable by both thrombin and coagulation factor Xa (protein)
chain: GVYARITYTDCTESGQNLCLCEGSNVCGKGNKCILGSNGKGNQCVTGEGTPKPESHNNGDFEEIPEEYLQ
modifications: ends and bridges not checked
notes: hirudin (HV2) linked at its amino-terminal with the oligopeptide GVYAR recognizable and cleavable by both thrombin and coagulation factor Xa
On to B1, for which the anticoagulation activity with FXa (0 h) is reported as 0; with FXa (3 h) it was 64; with FXa (6 h), 128; with thrombin (0 h), 0; in the data set with thrombin (3 h) it was 2; with thrombin (6 h), 8. Also, the anticoagulation activity with FXIa (0 h), with FXIa (3 h) and with FXIa (6 h) was 0 in each case. Besides, the “% of TT changes” value is recorded as 104.35 ± 17.21% in data set [5] (2 mg/kg) and 114.94 ± 19.82 % in [5] (4 mg/kg). Also, the “influence on hemorrhagic indexes compared with HV2 (in words)” value in the data set with tail-cut mouse was “less than that of HV2”. Further, the Bleeding time with tail-cut mouse (tail-cut mouse, 1.5 mg/kg) was 165.46 ± 142.42 s; in the data set on tail-cut mouse (tail-cut mouse, 6 mg/kg), 304 ± 178.99 s. Further, in the data set on tail-cut mouse (tail-cut mouse, statement), the “bleeding time compared with FH and TH (in words)” value is “significantly shorter bleeding time than that of FH and TH group”. Further, in [6], the “time needed for thrombogenesis (in words)” value is given as “prolonged in a dose-dependent manner”. In addition, the “Time needed for thrombogenesis” value was determined as 918.10 ± 204.16 s in [6] (2 mg/kg) and 1006.7 ± 227.37 s in data set [6] (4 mg/kg).

B2: EH: hirudin (HV2) linked at its amino-terminal with the oligopeptide EPR recognizable and cleavable by both coagulation factors XIa and Xa (protein)
chain: EPRITYTDCTESGQNLCLCEGSNVCGKGNKCILGSNGKGNQCVTGEGTPKPESHNNGDFEEIPEEYLQ
modifications: ends and bridges not checked
notes: hirudin (HV2) linked at its amino-terminal with the oligopeptide EPR recognizable and cleavable by both coagulation factors XIa and Xa
Consider B2, for which the anticoagulation activity with FXa (0 h) was determined as 0; in the data set with FXa (3 h), 64; in the data set with FXa (6 h), 128; with thrombin (0 h) it was 0; with thrombin (3 h), 0; in the data set with thrombin (6 h), 0. The anticoagulation activity worked out at 0 with FXIa (0 h), 256 with FXIa (3 h) and 512 in the data set with FXIa (6 h). Moreover, the “% of TT changes” value came out at 108.41 ± 12.95% in data set [5] (2 mg/kg) and 121.81 ± 13.68 % in data set [5] (4 mg/kg). Further, in the data set on tail-cut mouse, the “influence on hemorrhagic indexes compared with HV2 (in words)” value is “less than that of HV2”. The Bleeding time in the data set with tail-cut mouse (tail-cut mouse, 1.5 mg/kg) came to 203.89 ± 97.41 s; with tail-cut mouse (tail-cut mouse, 6 mg/kg), 338.77 ± 169.08 s. Also, the “time needed for thrombogenesis (in words)” value in [6] is “prolonged in a dose-dependent manner”. Besides, the “Time needed for thrombogenesis” value was 964.10 ± 179.68 s in data set [6] (2 mg/kg) and 1083.90 ± 227.10 s in data set [6] (4 mg/kg).
